Measurements reported in PMC3294249.

Key:
[1] = molecular target: Francisella α1NTD (residues 1-244), bacterial two-hybrid fusion (Francisella tularensis subsp. novicida strain U112) (UniProt A0Q4K8); test: two-hybrid
[2] = molecular target: Francisella α2NTD (residues 1-242), bacterial two-hybrid fusion (Francisella tularensis subsp. novicida strain U112); test: two-hybrid

Francisella α2NTD (residues 1-242), bacterial two-hybrid fusion (domain or fragment)
β-galactosidase activity (Miller units) [1]: 1410 Miller units

Francisella α1NTD (residues 1-244), bacterial two-hybrid fusion (from UniProt A0Q4K8 1-244) (domain or fragment)
β-galactosidase activity (Miller units) [2]: 662 Miller units
